In patent publication US20180127505A1, “HUMANIZED ANTI-AXL ANTIBODIES AND THEIR CONJUGATES” (MEDIMMUNE LIMITED, priority 2015, published 2018):

T1: AXL on MDA-MB-231 cells (UniProt P30530 26-894, limits assumed)
T1 sequence (looked up): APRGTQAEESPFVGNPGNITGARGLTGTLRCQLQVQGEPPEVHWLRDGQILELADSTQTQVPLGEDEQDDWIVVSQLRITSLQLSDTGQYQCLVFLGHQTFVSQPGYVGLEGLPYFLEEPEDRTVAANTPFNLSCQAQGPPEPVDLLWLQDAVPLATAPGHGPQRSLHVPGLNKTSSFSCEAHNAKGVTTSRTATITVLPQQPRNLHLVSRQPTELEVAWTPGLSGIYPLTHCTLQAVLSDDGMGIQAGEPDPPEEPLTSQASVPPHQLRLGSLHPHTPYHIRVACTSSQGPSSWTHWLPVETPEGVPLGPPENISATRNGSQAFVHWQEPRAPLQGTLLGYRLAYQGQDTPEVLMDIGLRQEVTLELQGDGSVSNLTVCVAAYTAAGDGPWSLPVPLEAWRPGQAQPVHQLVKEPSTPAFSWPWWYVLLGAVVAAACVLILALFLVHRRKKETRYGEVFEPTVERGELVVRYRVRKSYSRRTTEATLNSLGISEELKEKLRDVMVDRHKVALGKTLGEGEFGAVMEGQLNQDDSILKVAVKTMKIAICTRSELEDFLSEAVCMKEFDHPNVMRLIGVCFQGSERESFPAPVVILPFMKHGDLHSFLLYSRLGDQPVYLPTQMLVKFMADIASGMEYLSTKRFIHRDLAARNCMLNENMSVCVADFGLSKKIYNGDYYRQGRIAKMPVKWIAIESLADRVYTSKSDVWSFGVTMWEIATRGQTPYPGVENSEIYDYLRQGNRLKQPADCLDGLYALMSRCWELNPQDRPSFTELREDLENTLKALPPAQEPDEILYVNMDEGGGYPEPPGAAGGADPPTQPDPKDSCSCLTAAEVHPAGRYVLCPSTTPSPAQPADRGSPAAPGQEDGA

T2: Human Axl-Fc chimera (R&D Systems #154-AL) (human, UniProt P30530 26-451)
T2 construct: Bought reagent; also called Axl-Fc antigen; AXL-Fc chimera antigen; Fc part of the bought chimera not given
T2 sequence: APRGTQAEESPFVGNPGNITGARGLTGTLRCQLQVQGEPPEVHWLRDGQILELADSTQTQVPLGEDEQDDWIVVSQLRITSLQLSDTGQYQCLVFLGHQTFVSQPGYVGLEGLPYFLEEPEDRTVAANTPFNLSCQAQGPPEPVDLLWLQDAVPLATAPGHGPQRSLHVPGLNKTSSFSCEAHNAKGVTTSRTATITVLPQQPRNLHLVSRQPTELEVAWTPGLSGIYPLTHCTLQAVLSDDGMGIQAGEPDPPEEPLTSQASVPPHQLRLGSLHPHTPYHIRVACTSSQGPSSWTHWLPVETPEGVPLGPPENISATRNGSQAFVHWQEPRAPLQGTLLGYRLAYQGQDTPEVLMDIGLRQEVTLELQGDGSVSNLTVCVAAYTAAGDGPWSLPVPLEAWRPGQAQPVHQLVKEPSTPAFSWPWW

T3: Human AXL-Strep-His (produced by Evitria AG in transiently transfected CHO cells) (human, UniProt P30530 26-451, limits assumed)
T3 construct: also called Axl-Strep-His antigen; human AxI-Strep-His; not shown: Strep and His tags
T3 sequence: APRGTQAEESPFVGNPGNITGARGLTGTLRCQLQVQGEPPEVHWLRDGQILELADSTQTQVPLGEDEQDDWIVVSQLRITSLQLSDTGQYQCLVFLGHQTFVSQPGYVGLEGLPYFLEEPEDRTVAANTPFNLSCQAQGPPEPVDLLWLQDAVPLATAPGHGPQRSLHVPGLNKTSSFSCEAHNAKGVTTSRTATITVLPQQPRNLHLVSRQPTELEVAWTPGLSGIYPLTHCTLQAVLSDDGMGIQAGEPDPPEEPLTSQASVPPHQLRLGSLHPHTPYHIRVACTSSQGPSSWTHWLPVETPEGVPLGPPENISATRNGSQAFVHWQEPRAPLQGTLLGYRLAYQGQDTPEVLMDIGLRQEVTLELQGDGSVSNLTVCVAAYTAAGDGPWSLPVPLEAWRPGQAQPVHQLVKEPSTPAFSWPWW

T4: Cynomolgus monkey AXL (Macaca fascicularis, UniProt A0A2K5WXE0)
T4 construct: form not described
T4 sequence (antigen): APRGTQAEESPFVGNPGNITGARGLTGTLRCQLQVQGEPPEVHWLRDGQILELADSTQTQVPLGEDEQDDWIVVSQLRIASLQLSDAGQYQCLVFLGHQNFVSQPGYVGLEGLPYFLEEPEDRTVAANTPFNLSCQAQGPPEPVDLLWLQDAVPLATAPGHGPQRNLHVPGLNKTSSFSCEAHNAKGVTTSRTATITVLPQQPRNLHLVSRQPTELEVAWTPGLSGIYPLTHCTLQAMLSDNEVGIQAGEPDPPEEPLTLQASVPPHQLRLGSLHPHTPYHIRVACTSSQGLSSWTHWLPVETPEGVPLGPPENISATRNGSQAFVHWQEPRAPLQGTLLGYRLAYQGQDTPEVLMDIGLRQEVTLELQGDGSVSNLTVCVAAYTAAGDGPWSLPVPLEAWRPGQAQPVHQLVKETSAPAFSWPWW


What was measured:
[1] = molecular target: T1, AXL on MDA-MB-231 cells; test: cell-based or functional assay
[2] = molecular target: T2, Human Axl-Fc chimera (R&D Systems …); test: SPR (Biacore T200), AXL-Fc amine-coupled to CM5 chip, antibody as analyte, bivalent model
[3] = molecular target: T3, Human AXL-Strep-His (produced by …); test: SPR (Biacore T200), AXL-Strep-His amine-coupled to CM5 chip, antibody as analyte, heterogeneous ligand model
[4] = molecular target: T3, Human AXL-Strep-His (produced by …); test: ELISA on plate-coated human AXL-Strep-His (Protocol 4), OD 450nm against Log10[IgG (µg/mL)] [A. Human Axl]
[5] = molecular target: T3, Human AXL-Strep-His (produced by …); test: human AXL ELISA (Protocol 4), untreated antibody of the accelerated stability analysis, OD 450nm against Log10[IgG (µg/mL)]
[6] = molecular target: T4, Cynomolgus monkey AXL; test: ELISA on cynomolgus monkey AXL (coating antigen not described in the text), OD 450nm against Log10[IgG (µg/mL)] [B. Cynomolgus monkey AXL]
[7] = molecular target: T3, Human AXL-Strep-His (produced by …); test: SPR (Biacore T200), AXL-Strep-His amine-coupled to CM5 chip, antibody as analyte, heterogeneous ligand model; column head KD1; heterogeneous ligand model; AXL-Strep-His antigen
[8] = molecular target: T3, Human AXL-Strep-His (produced by …); test: SPR (Biacore T200), AXL-Strep-His amine-coupled to CM5 chip, antibody as analyte, bivalent model
[9] = molecular target: T3, Human AXL-Strep-His (produced by …); test: SPR (Biacore T200), AXL-Strep-His amine-coupled to CM5 chip, antibody as analyte, bivalent model; column head KD1

Row | Kd [2] | koff [2] | kon [2] | EC50 (read off the curve) [5] | EC50 (read off the curve) [6] | Binder | GI50 (pg/ml), MDA-MB-231 cytotoxicity, MTS assay, 5 days [1] | further results
1 |  |  |  |  |  | Ab1-ConjE (Ab1 conjugated to the ConjE PBD payload, DAR 2.2) (other, ConjE PBD drug-linker on cysteine thiol(s) of the antibody, sites not stated; DAR 2.2) VH: EVQLVESGGDLVKPGGSLKLSCAASGFTFSSYGMSWVRQTPDKRLEWVATISSGGSYTYYPDSVKGRFTISRDNAKNTLYLQMSSLKSEDTAMYYCARHPIYYTYDDTMDYWGQGTSVTVSS VL: ENVLTQSPAIMAASPGEKVTMTCSASSSVSSGNFHWYQQKPGTSPKLWIYRTSNLASGVPARFSGSGSGTSYSLTISSMEAEDAATYYCQQWSGYPWTFGGGTKLEIK | 6.95 pg/mL | 
2 | 0.0046 µM | 0.000142 s⁻¹ | 30900 M⁻¹ s⁻¹ | ~10 ng/mL | ~20 ng/mL | Ab1, anti-AXL antibody comprising the murine 1H12 VH (SEQ ID NO. 1) and VL (SEQ ID NO. 4) and a constant region derived from one or more human antibodies (antibody, V domains shown, also called Abl; chimeric 1H12) VH: EVQLVESGGDLVKPGGSLKLSCAASGFTFSSYGMSWVRQTPDKRLEWVATISSGGSYTYYPDSVKGRFTISRDNAKNTLYLQMSSLKSEDTAMYYCARHPIYYTYDDTMDYWGQGTSVTVSS VL: ENVLTQSPAIMAASPGEKVTMTCSASSSVSSGNFHWYQQKPGTSPKLWIYRTSNLASGVPARFSGSGSGTSYSLTISSMEAEDAATYYCQQWSGYPWTFGGGTKLEIK |  | koff [3]: 0.000533 s⁻¹; kon [3]: 13100 M⁻¹ s⁻¹; EC50 (read off the curve) [4]: ~30 ng/mL; Kd [7]: 0.0407 µM
3 |  |  |  |  |  | Ab2-ConjE (Ab2 conjugated to the ConjE PBD payload, DAR 2.4) (other, ConjE PBD drug-linker on cysteine thiol(s) of the antibody, sites not stated; DAR 2.4) VH: MGFKMESQFQVFVFVFLWLSGVDGQVQLVESGGGVVQPGRSLRLSCAASGFTFSSYGMSVRQAPGKGLEWVATISSGGSYTYYPDSVKGRFTISRDNSKNTLYLQMNSLRAEDTAVYYCARHPIYYTYDDTMDYWGQGTTVTVSS VL: EIVLTQSPATLSLSPGERATLSCSASSSVSSGNFHWYQQKPGLAPRLLIYRTSNLASGIPDRFSGSGSGTDFTLTISRLEPEDFAVYYCQQWSGYPWTFGPGTKVDIK | 73 pg/mL | 
4 |  |  |  |  |  | Ab3-ConjE (Ab3 conjugated to the ConjE PBD payload, DAR 2.2) (other, ConjE PBD drug-linker on cysteine thiol(s) of the antibody, sites not stated; DAR 2.2) VH: MGFKMESQFQVFVFVFLWLSGVDGQVQLVESGGGVVQPGRSLRLSCAASGFTFSSYGMSVRQAPGKGLEWVATISSGGSYTYYPDSVKGRFTISRDNSKNTLYLQMNSLRAEDTAVYYCARHPIYYTYDDTMDYWGQGTTVTVSS VL: EIVLTQSPGTLSLSPGERATLSCSASSSVSSGNFHWYQQKPGLAPRLLIYRTSNLASGIPARFSGSGSGTDFTLTISSLEPEDFAVYYCQQWSGYPWTFGGGTKLEIK | 27.6 pg/mL | 
5 |  |  |  |  |  | Ab5-ConjE (Ab5 conjugated to the ConjE PBD payload, DAR 2.3) (other, ConjE PBD drug-linker on cysteine thiol(s) of the antibody, sites not stated; DAR 2.3) VH: EVQLVESGGGLVQPGGSLRLSCAASGFTFSSYGMSWVRQAPGKGLEWVATISSGGSYTYYPDSVKGRFTISRDNAKNSLYLQMNSLRAEDTAVYYCARHPIYYTYDDTMDYWGQGTLVTVSS VL: EIVLTQSPGTLSLSPGERATLSCSASSSVSSGNFHWYQQKPGLAPRLLIYRTSNLASGIPARFSGSGSGTDFTLTISSLEPEDFAVYYCQQWSGYPWTFGGGTKLEIK | 44 pg/mL | 
6 | 0.00137 µM | 0.000396 s⁻¹ | 290000 M⁻¹ s⁻¹ | ~20 ng/mL | ~20 ng/mL | Ab4, anti-AXL antibody comprising VH SEQ ID NO. 3 and VL SEQ ID NO. 5 and a constant region derived from one or more human antibodies (antibody, V domains shown) VH: EVQLVESGGGLVQPGGSLRLSCAASGFTFSSYGMSWVRQAPGKGLEWVATISSGGSYTYYPDSVKGRFTISRDNAKNSLYLQMNSLRAEDTAVYYCARHPIYYTYDDTMDYWGQGTLVTVSS VL: EIVLTQSPATLSLSPGERATLSCSASSSVSSGNFHWYQQKPGLAPRLLIYRTSNLASGIPDRFSGSGSGTDFTLTISRLEPEDFAVYYCQQWSGYPWTFGPGTKVDIK |  | koff [8]: 0.00059 s⁻¹; kon [8]: 9760 M⁻¹ s⁻¹; Kd [9]: 0.0604 µM; EC50 (read off the curve) [4]: ~30 ng/mL
7 |  |  |  |  |  | Ab4-ConjE (Ab4 conjugated to the ConjE PBD payload, DAR 2.6) (other, ConjE PBD drug-linker on cysteine thiol(s) of the antibody, sites not stated; DAR 2.6) VH: EVQLVESGGGLVQPGGSLRLSCAASGFTFSSYGMSWVRQAPGKGLEWVATISSGGSYTYYPDSVKGRFTISRDNAKNSLYLQMNSLRAEDTAVYYCARHPIYYTYDDTMDYWGQGTLVTVSS VL: EIVLTQSPATLSLSPGERATLSCSASSSVSSGNFHWYQQKPGLAPRLLIYRTSNLASGIPDRFSGSGSGTDFTLTISRLEPEDFAVYYCQQWSGYPWTFGPGTKVDIK | 64.2 pg/mL | 
8 | 0.00769 µM | 0.000159 s⁻¹ | 20600 M⁻¹ s⁻¹ | ~20 ng/mL | ~30 ng/mL | Ab5, anti-AXL antibody comprising VH SEQ ID NO. 3 and VL SEQ ID NO. 7 and a constant region derived from one or more human antibodies (antibody, V domains shown) VH: EVQLVESGGGLVQPGGSLRLSCAASGFTFSSYGMSWVRQAPGKGLEWVATISSGGSYTYYPDSVKGRFTISRDNAKNSLYLQMNSLRAEDTAVYYCARHPIYYTYDDTMDYWGQGTLVTVSS VL: EIVLTQSPGTLSLSPGERATLSCSASSSVSSGNFHWYQQKPGLAPRLLIYRTSNLASGIPARFSGSGSGTDFTLTISSLEPEDFAVYYCQQWSGYPWTFGGGTKLEIK |  | koff [8]: 0.000435 s⁻¹; kon [8]: 18900 M⁻¹ s⁻¹; Kd [9]: 0.023 µM
